Assay results taken from paper PMC12000397.

Assays:
[1] = biological target: FITC-labeled BiP NBD (mouse); experiment: fluorescence polarisation; 50 nM FITC-labeled BiP NBD constructs, Grp94 or Grp94 MD titrated; 25 mM Tris pH 7.5, 50 mM KCl, 1 mM ADP (hexokinase-treated), 1 mM DTT; single-site binding fit
[2] = biological target: FITC-labeled BiP_(D187A) NBD (mouse); experiment: as above
[3] = biological target: FITC-labeled BiP_(I191A) NBD (mouse); experiment: as above
[4] = biological target: Grp94 N91C labeled with Alexa Fluor 555 (donor) and Alexa Fluor 647 (acceptor) (mouse) (UniProt P08113); experiment: other fluorescence titration; bulk FRET of 125 nM donor- and acceptor-labeled Grp94 N91C, BiP NBD titrated, apo conditions; 30 °C, 25 mM Tris pH 7.5, 50 mM KCl, 1 mM BME, 1 mg/mL BSA; single-site fit; apparent
Sequence of Grp94 N91C labeled with Alexa Fluor 555 (donor) and Alexa Fluor 647 (acceptor) (mouse) (P08113 other isoform, or with tags, fused parts or gaps Δ287-328 | N91C | N91C): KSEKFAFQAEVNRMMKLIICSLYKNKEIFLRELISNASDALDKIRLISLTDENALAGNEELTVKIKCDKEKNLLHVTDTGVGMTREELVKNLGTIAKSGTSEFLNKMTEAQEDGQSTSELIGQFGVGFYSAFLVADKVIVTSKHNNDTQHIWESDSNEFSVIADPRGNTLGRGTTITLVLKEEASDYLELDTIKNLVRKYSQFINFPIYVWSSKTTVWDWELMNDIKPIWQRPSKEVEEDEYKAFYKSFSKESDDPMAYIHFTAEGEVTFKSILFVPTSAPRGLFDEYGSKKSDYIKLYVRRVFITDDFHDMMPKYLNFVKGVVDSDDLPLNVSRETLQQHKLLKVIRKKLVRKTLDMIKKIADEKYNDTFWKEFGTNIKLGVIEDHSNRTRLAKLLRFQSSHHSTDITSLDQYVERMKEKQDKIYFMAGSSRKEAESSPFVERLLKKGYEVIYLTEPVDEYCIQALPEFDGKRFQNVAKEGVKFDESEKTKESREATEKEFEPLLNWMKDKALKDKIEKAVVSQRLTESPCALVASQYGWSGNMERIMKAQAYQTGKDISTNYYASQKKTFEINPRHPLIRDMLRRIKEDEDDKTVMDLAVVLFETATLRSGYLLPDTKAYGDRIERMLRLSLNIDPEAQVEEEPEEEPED

Sequence of Grp94 (residues 72-765) with the charged-linker removed (Δ287-328) (P08113 other isoform, or with tags, fused parts or gaps mutant): as the sequence (P08113 other isoform, or with tags, fused parts or gaps Δ287-328 | N91C | N91C) above, with C20N counted along it

Row | Kd [1] | Kd [2] | Kd [3] | Kd [4] | Substance
1 | 1.4 µM | 8.2 µM | 9 µM |  | Grp94 (residues 72-765) with the charged-linker removed (Δ287-328) (from UniProt P08113 72-765) (natural protein)
2 |  |  |  | 0.67 µM | BiP NBD (domain or fragment)
